Source: PMC4945038, “Rad51 Nucleoprotein Filament Disassembly Captured Using Fluorescent Plasmodium falciparum SSB as a Reporter for Single-Stranded DNA”

B1: (dT)70 (ssDNA)
DNA: TTTTTTTTTTTTTTTTTTTTTTTTTTTTTTTTTTTTTTTTTTTTTTTTTTTTTTTTTTTTTTTTTTTTTT

Columns and labels:
[1] = molecular target: T1, Pf-SSB-MDCC (Plasmodium falciparum, UniProt Q8I415 77-284); experiment: fluorescence titration; 100 mM NaCl; stoichiometric, 1 tetramer per (dT)70; ~4-fold fluorescence increase; Titration and stopped-flow: 20 mM Tris-Cl pH 8, 0.1 mM EDTA, 100 mM NaCl, 1 mM TCEP, 25 C; ITC same with 200 mM NaCl; Rad51 filaments: 25 mM Tris-Cl pH 7.7, 1 mM TCEP, 5% glycerol, 10 mM MgCl2, 50 mM NaCl, 3 mM ATP, ATP regeneration; conditions: protein: recombinant; tags: MDCC on Cys93; chain copies: 4; single strand
[2] = molecular target: T1, Pf-SSB-MDCC; experiment: ITC; 200 mM NaCl; stoichiometric, 2 (dT)35 per tetramer; dHobs -71.8±0.2 kcal/mol; Titration and stopped-flow: 20 mM Tris-Cl pH 8, 0.1 mM EDTA, 100 mM NaCl, 1 mM TCEP, 25 C; ITC same with 200 mM NaCl; Rad51 filaments: 25 mM Tris-Cl pH 7.7, 1 mM TCEP, 5% glycerol, 10 mM MgCl2, 50 mM NaCl, 3 mM ATP, ATP regeneration; conditions: protein: recombinant; tags: MDCC on Cys93; chain copies: 4; single strand; 2 copies per tetramer
[3] = molecular target: Pf-SSB (Plasmodium falciparum, UniProt Q8I415 77-284); experiment: ITC; 200 mM NaCl; stoichiometric, 2 (dT)35 per tetramer; dHobs -73.1±0.2 kcal/mol; Titration and stopped-flow: 20 mM Tris-Cl pH 8, 0.1 mM EDTA, 100 mM NaCl, 1 mM TCEP, 25 C; ITC same with 200 mM NaCl; Rad51 filaments: 25 mM Tris-Cl pH 7.7, 1 mM TCEP, 5% glycerol, 10 mM MgCl2, 50 mM NaCl, 3 mM ATP, ATP regeneration; conditions: protein: recombinant; chain copies: 4; single strand; 2 copies per tetramer

Binder | binding result [1] | binding result [2] | binding result [3]
B1 | binds |  | 
TTTTTTTTTTTTTTTTTTTTTTTTTTTTTTTTTTT (ssDNA) [(dT)35] |  | binds | binds
